Molecular target: T1, His-tagged RAP2.3 (RAP2.3-His) (Arabidopsis thaliana, UniProt P42736 1-248)
T1 construct: RAP2.3 (related to AP2.3), Arabidopsis thaliana; not shown: His, C-terminal, kept
Test: pull-down; GST or ORA59-GST (10 μg) on glutathione sepharose 4B beads, RAP2.3-His (10 μg) added for 2 h at 4°C; 25 mM Tris-HCl pH 8.0, 100 mM NaCl, 1% Triton X-100, 1 mM DTT; immunoblot with anti-GST and anti-His
Conditions: both partners purified

T1 sequence (P42736 whole entry): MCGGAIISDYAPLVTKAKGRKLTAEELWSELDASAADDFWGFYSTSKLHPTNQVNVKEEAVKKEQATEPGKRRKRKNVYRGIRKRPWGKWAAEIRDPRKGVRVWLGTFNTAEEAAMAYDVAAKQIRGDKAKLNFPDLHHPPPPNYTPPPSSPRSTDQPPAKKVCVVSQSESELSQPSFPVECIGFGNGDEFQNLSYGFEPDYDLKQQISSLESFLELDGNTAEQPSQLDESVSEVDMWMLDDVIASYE

binding result: binds
B1: C-terminal GST-tagged ORA59 (ORA59-GST) (natural protein)
chain: not shown
notes: ORA59 (octadecanoid-responsive arabidopsis 59), Arabidopsis thaliana; not shown: GST, C-terminal, kept

— publication PMC6254012, “AP2/ERF Family Transcription Factors ORA59 and RAP2.3 Interact in the Nucleus and Function Together in Ethylene Responses” (Frontiers in Plant Science, 2018)
